Assay results taken from patent US20030219718, “Inhibitors of the S100-p53 protein-protein interaction and method of inhibiting cancer employing the same” (UNIVERSITY OF MARYLAND, BALTIMORE, published 2003).

Target: p53 (UniProt P04637 P04637:1-393)
Test: EMSA; supershifted by p53 antibody; five times more protein and DNA needed than for GADD45; salmon sperm DNA 1.0 µg
Details: tags: baculovirus expressed, Protein Sciences Inc; chain copies: 4; label: T4 polynucleotide kinase end label
Procedure: Accordingly, mobility shift assays were performed with purified p53 to determine if these sequences in the promoter of S100B were bona fide p53 binding sites, using the GADD45 sequence as a positive control. […] The baculovirus expressed p53 was obtained from Protein Sciences Inc. (Baltimore, Md.). Baculovirus expressed p53 was used (0.6 and 3.0 μg) for binding to the GADD45 and the S100B oligonucleotides respectively.

Chain of p53 (P04637 whole entry, one chain of several): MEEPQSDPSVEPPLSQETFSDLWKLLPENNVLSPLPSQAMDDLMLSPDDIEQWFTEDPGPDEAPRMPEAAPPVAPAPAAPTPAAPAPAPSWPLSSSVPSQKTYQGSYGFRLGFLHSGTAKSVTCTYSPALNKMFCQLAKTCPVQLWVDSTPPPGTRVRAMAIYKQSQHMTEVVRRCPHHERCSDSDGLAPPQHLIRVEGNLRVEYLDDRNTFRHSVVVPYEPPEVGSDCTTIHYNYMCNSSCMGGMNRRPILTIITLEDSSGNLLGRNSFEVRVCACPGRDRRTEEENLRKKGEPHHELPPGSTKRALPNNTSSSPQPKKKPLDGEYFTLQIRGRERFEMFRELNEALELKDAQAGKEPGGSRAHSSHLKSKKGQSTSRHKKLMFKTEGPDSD

B1: S100B promoter p53 site (20/20 match, nt 1705-1735) (dsDNA)
DNA 1: GCCTGGGCAAGCTCTGTGCTTCACAGAGCAAGCCTGTGT
DNA 2: ACACAGGCTTGCTCTGTGAAGCACAGAGCTTGCCCAGGC
  binding result: binds
